# Experimental data taken from PMC9497888.
# Target: fibrin (human) (UniProt P02671)
# Chain of UniProt P02671 (P02671 36-866, chain 1 of 3): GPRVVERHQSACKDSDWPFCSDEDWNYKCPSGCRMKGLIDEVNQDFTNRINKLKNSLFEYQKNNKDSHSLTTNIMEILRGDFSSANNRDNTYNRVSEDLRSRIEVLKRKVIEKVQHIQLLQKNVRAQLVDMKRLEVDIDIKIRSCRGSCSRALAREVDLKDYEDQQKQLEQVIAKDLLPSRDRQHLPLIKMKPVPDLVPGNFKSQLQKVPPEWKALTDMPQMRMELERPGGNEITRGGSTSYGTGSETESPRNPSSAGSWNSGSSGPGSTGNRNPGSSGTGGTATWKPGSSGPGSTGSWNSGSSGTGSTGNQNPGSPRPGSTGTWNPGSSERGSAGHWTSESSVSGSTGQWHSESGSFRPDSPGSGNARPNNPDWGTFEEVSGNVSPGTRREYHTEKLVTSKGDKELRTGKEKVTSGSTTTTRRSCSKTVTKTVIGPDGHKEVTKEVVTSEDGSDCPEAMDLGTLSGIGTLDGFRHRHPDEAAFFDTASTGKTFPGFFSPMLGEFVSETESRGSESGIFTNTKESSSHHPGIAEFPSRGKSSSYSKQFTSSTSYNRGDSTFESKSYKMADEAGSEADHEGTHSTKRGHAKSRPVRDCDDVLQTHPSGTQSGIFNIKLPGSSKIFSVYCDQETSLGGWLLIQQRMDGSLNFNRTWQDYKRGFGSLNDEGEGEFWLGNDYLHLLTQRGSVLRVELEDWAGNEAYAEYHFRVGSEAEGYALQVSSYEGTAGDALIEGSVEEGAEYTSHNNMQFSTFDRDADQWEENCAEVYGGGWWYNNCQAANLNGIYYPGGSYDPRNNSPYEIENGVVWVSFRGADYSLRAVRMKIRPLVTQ
# Chain of UniProt P02671 (P02675 45-491, chain 2 of 3, further chain): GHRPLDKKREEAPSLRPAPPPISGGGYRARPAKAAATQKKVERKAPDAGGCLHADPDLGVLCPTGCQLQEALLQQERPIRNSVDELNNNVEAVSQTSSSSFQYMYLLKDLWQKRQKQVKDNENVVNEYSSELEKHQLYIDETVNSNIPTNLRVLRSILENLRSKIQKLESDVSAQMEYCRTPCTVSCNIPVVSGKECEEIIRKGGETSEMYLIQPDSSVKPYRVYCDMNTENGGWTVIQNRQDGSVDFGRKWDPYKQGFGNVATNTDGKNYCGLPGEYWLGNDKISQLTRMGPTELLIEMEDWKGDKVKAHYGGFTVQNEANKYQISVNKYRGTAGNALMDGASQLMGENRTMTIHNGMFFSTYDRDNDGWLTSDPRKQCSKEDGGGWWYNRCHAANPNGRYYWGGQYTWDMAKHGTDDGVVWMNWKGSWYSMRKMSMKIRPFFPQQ
# Chain of UniProt P02671 (P02679 27-453, chain 3 of 3, further chain): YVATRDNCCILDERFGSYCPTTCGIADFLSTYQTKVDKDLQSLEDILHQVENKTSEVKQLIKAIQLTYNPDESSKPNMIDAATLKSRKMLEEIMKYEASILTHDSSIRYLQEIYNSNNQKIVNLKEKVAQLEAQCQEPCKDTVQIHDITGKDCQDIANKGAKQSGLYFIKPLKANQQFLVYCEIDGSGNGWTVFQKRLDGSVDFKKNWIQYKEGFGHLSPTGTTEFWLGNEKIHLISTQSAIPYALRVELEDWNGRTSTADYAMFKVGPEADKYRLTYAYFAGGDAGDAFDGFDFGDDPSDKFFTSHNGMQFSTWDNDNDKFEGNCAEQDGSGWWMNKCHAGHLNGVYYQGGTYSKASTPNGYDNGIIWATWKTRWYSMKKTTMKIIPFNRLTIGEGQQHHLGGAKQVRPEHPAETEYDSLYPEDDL
row,Substance,stimulation factor of S-2765 hydrolysis: Kcat/Km with fibrin cofactor (100 μg/mL) over Kcat/Km without cofactor [fold]
1,"ANGlyα2+1 (DSPAα2 N155S, added N-glycosylation site N153) (from UniProt P15638 37-477) (enzyme)",3.1
2,QNGlyα2 (DSPAα2 N185Q-N398Q) (from UniProt P15638 37-477) (enzyme),1.7
3,QNGlyα2-1 (DSPAα2 N185Q) (from UniProt P15638 37-477) (enzyme),2
4,QNGlyα2-2 (DSPAα2 N398Q) (from UniProt P15638 37-477) (enzyme),7.4
5,"recombinant DSPAα2 (bat plasminogen activator α2), wild type (from UniProt P15638 37-477) (enzyme)",11.3
